Data from patent US20240247072A1 (KEYMED BIOSCIENCES, published 2024).
Changes are numbered by the printed parent chain.

T1: human CD70, full length, on CHO cells (CHO-human CD70-B07) (human, UniProt P32970 1-193)
T1 construct: whole, on cells; Stably transfected CHO cells; also called CHO-CD70
T1 sequence (looked up): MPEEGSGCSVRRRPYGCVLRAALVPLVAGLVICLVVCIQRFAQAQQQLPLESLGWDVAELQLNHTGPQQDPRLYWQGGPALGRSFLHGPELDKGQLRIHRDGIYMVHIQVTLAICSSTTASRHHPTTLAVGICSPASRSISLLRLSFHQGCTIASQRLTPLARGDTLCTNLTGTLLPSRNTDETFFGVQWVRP

T2: recombinant trimeric protein of human CD70 extracellular region (human CD70 mIgG Fc (knob) / mouse IgG Fc … (human, UniProt P01863 98-330 = IgG part))
T2 construct: The ELISA and Octet texts say only 'recombinant CD70 protein' / 'CM352 antigen'; also called recombinant human CD70 protein; recombinant CD70 protein
T2 chain 1: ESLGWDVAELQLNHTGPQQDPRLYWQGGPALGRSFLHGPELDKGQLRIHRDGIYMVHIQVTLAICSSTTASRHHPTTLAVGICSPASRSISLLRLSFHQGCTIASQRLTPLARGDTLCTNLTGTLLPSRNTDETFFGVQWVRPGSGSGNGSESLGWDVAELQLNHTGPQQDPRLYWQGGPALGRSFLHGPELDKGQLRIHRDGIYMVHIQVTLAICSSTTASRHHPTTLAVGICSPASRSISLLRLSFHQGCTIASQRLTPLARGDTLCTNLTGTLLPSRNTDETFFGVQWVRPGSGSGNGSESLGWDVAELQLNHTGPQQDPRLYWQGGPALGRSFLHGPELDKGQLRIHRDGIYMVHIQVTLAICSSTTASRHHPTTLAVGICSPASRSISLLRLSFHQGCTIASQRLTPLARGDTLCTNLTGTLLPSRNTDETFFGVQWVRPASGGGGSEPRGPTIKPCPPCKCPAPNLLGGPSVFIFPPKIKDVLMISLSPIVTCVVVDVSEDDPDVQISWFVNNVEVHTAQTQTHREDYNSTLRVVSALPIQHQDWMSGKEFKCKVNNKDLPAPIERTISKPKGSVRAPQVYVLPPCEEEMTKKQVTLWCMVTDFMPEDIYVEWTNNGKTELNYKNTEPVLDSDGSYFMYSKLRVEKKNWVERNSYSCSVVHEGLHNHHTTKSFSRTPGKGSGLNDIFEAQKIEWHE
T2 chain 2: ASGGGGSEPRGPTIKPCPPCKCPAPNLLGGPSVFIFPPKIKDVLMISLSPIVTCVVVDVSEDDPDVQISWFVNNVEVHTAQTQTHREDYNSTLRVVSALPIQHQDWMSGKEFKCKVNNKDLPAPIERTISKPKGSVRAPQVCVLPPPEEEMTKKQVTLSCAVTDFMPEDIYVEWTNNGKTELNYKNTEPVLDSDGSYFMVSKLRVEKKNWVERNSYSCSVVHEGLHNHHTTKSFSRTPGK

B1: 2B12 Fab antibody (Fab, V domains shown)
VH: QVQLQQSGPGLVQPSQSLSITCTVSGFSLTTYAVHWVRQSPGKGLEWLGVIWSTGITDYNAAFISRLSISKDNSKSQVFFKMNSLQSDDIAIYYCARNPYYGNLNAMDYWGQGTSVTVSS
VL: DIVLTQSPASLAVSLGQRATISCRASKSVDTSGYSFMHWYQQKPGQPPKLLIYLASNLESGVPARFSGSGSGTDFTLNIHPVEEEDAATYYCQHSRELPLTFGAGTKLELK
notes: Purified Fab from the mouse Fab phage display library
B2: 3B2 Fab antibody (Fab, V domains shown)
VH: B1 VH with Q1E, Q5K, A33G, S87A, I90T, P99S, N105Y, A106V
VL: B1 VL with D30S, T31A, S35N
notes: as for B1
B3: 12A1 Fab antibody (Fab, V domains shown)
VH: B1 VH with N83D, I90T, Y94F, Y100H
VL: B1 VL with D30S, T31A, S35T, F36W, P47A, L100P, A104G, L110I
notes: as for B1
B4: 12A1 chimeric antibody (antibody, V domains shown)
VH: B1 VH with N83D, I90T, Y94F, Y100H
VL: B1 VL with D30S, T31A, S35T, F36W, P47A, L100P, A104G, L110I
B5: 23A11 Fab antibody (Fab, V domains shown)
VH: B1 VH with T54V, I56S, S87A, I90T, P99I, L104V, N105Y
VL: B1 VL with T31A, P44A, S69R, E85G, L110I
notes: as for B1
B6: 23A11 chimeric antibody (antibody, V domains shown)
VH: B1 VH with T54V, I56S, S87A, I90T, P99I, L104V, N105Y
VL: B1 VL with T31A, P44A, S69R, E85G, L110I
B7: 27A3 Fab antibody (Fab, V domains shown)
VH: B1 VH with Q1E, Q6E, A62D, N83D, I90T, Y94F, P99H
VL: B1 VL with D30S, L100Y, A104G, L110I
notes: as for B1
B8: 27A3 chimeric antibody (antibody, V domains shown)
VH: B1 VH with Q1E, Q6E, A62D, N83D, I90T, Y94F, P99H
VL: B1 VL with D30S, L100Y, A104G, L110I
B9: 14C12 chimeric antibody (antibody, V domains shown)
VH: EVQLQQSGPELVKPGASVKMSCKASGYTFTDYVIHWVKQKPGQGLEWIGYLHPYNDDTKYNEKFKGKATLTSDKSSSTAYMELSSLTSEDSAVYYCARRGYYDYAWFADWGQGTLVTVSA
VL: B1 VL with D30S, T31A, S35T, F36W, M37I, G45R, P47A, L100P, A104G, L110I
B10: 14C12 Fab antibody (Fab, V domains shown)
VH: B9 VH
VL: B1 VL with D30S, T31A, S35T, F36W, M37I, G45R, P47A, L100P, A104G, L110I
notes: as for B1
B11: 32D1 Fab antibody (Fab, V domains shown)
VH: B9 VH with V18L, S84N
VL: B1 VL with R24K, D30S, T31A, S35T, F36W, P47A, L100P, A104G, L110I
notes: as for B1
B12: 32D1 chimeric antibody (antibody, V domains shown)
VH: B9 VH with V18L, S84N
VL: B1 VL with R24K, D30S, T31A, S35T, F36W, P47A, L100P, A104G, L110I
B13: 2B12 chimeric antibody (antibody, V domains shown)
VH: B1 VH
VL: B1 VL
B14: 1H21-D5 hybridoma antibody (antibody, V domains shown)
VH: QVQLKQSGPGLVQPSQSLSITCTVSGFSLTSYGIHWVRQSPGKGLEWLGVIWSGGSTDFNAAFISRLSISKDNSKSQVFFKVISLQANDTAIYYCGRNSYYGNLYAMDYWGQGTSVTVSS
VL: B1 VL with A9T, D30S, T31A
notes: Mouse antibody in hybridoma culture supernatant

Key:
[1] = molecular target: T1, human CD70, full length, on CHO cells …; experiment: flow cytometry, Fab on CHO-human CD70 cells
Experimental: The blank control cell CHO and stably-transfected cell line CHO-CD70 were prepared and added at 5×10⁴ cells/well into a 96-well plate respectively. 50 μL of Fab antibodies with different dilution gradients were added into each well and incubated at 4° C. for 60 minutes. The centrifuge was performed to discard the supernatant. The plate was washed with 0.5% BSA/PBS and added with 50 μL of a secondary antibody solution (Anti-human IgG F (ab′) 2-AF647, Jackson Immuno Research) and incubated at 4° C. for 45 minutes. The excess secondary antibody was washed off with 0.5% BSA. The PBS solution was added to resuspend cells for flow cytometry. The data was collected.

[2] = molecular target: T2, recombinant trimeric protein of human …; experiment: BLI (Octet), biotin antigen on SA probe, Fab in solution
[3] = molecular target: T2, recombinant trimeric protein of human …; experiment: competition ELISA, Fab titrated, human CD27 coated, biotin-CD70
Experimental: The next day, the plate was washed 3 times with PBS, added with 200 μL of 2% defatted dry milk/PBS, blocked at room temperature for 2 hours, and washed once with PBS, 50 μL of different dilution gradients of Fab antibodies were added and incubated at room temperature for 30 minutes. […] The plate was washed 3 times with PBST and PBS and dried by spinning. A secondary antibody solution Streptavidin-coupled horseradish peroxidase SA-HRP (BD bioscience, Cat. No: 6222697) was diluted with 0.5% BSA in a ratio of 1:8000. 100 μl of the diluent was added into each well and incubate at room temperature for 30 minutes. The plate was washed 3 times with PBST and PBS and dried by spinning. 100 μl of the color development solution (TMB solution, Sigma, Cat. No: T2885) was added into each well and protected from light at 37° C. for reaction. After the substrate developed moderately, 50 μl of 2M concentrated sulfuric acid solution was added into each well to terminate the reaction. The OD450 nm was determined by using an enzyme-linked detector within 30 minutes, and the data was collected.

[4] = molecular target: T1, human CD70, full length, on CHO cells …; experiment: flow cytometry, chimeric IgG on CHO-human CD70 cells
Experimental: Different cells in logarithmic growth phase were taken, blocked with 3% BSA for 30 minutes, and plated to a 96-well U-plate at 5×10⁴ cells/100 μL. The centrifuge was performed at 1100 rpm for 3 minutes. The supernatant was discarded and the cells were gently tapped to be loosening. 50 μL of gradient diluted antibody was added (antibody concentration: from 30 μg/mL, 3-fold dilution for 5 gradients) per well, and incubated at 4° C. for 1 hour. After incubation, 180 μL of 0.5% BSA was added to each well for washing 3 times. 30 μL/well of secondary antibody AlexaFluro647 anti-human IgG (Jackson Immuno Research, Cat. No: 109-606-170) was added and incubated at 4° C. for 45 minutes. At the end of the incubation, each well was washed 3 times with 180 μL of 0.5% BSA and finally resuspended in 50 μL of PBS for iQue (Intellicyt, USA) assay.

[5] = molecular target: T2, recombinant trimeric protein of human …; experiment: competition ELISA, chimeric IgG titrated, CD27 coated, biotin-CD70, human pair
Experimental: The recombinant CD27 protein was coated at 1 μg/mL in a 96-well microtiter plate and incubated overnight at 4° C. The next day, the plate was washed 3 times with PBS, added with 200 μL of 2% defatted dry milk/PBS, blocked at room temperature for 2 hours, and washed once with PBS. The purified chimeric antibody was divided to 12 concentration gradients starting at 100 nM and diluted in a 1:3 gradient. […] of the antibody was added per well and incubated at room temperature for 30 minutes. […] The plate was washed 3 times with PBST and PBS and dried by spinning. A secondary antibody Streptavidin-coupled horseradish peroxidase SA-HRP (BD bioscience, cat. No: 6222697) was diluted with 0.5% BSA in a ratio of 1:8000. 100 μL of the diluent was added into each well and incubated at room temperature for 30 minutes. The plate was washed 3 times with PBST and PBS and dried by spinning. 100 μl of color development solution (TMB solution, Sigma, Cat. No: T2885) was added into each well and protected from light at 37° C. for reaction. After the substrate developed moderately, 50 μl of H₂SO₄ was added into each well to terminate the reaction. The OD450 nm was determined by using an enzyme-linked detector within 30 minutes, and the data was collected. The results were calculated by using Graph Pad Prism 5 software.

[6] = molecular target: T2, recombinant trimeric protein of human …; experiment: ELISA binding, hybridoma supernatant, human CD70
[7] = molecular target: T1, human CD70, full length, on CHO cells …; experiment: flow cytometry, hybridoma supernatant, cell surface human CD70

Row | Binder | EC50 [1] | koff [2] | IC50 [3] | EC50 [4] | IC50 [5] | binding result [6] | binding result [7]
1 | B1 | 8.6 nM | 0.000125 s⁻¹ | 0.29 nM | – | – | – | –
2 | B2 | 14.2 nM | 0.000325 s⁻¹ | 0.32 nM | – | – | – | –
3 | B3 | 17.7 nM | 0.000317 s⁻¹ | 1.88 nM | – | – | – | –
4 | B4 | – | – | – | 7.55 nM | 0.12 nM | – | –
5 | B5 | 15.6 nM | 0.000403 s⁻¹ | 0.5 nM | – | – | – | –
6 | B6 | – | – | – | 11.9 nM | 0.07 nM | – | –
7 | B7 | 12.4 nM | 0.000172 s⁻¹ | 0.51 nM | – | – | – | –
8 | B8 | – | – | – | 4.07 nM | 0.08 nM | – | –
9 | B9 | – | – | – | 15 nM | 0.1 nM | – | –
10 | B10 | 28 nM | 0.000321 s⁻¹ | 0.79 nM | – | – | – | –
11 | B11 | 8.1 nM | 0.00183 s⁻¹ | 2.26 nM | – | – | – | –
12 | B12 | – | – | – | 12.1 nM | 0.1 nM | – | –
13 | B13 | – | – | – | 17.7 nM | 0.11 nM | – | –
14 | B14 | – | – | – | – | – | binds | binds
